Experimental findings from patent publication US20200390902A1, “Antibody-Drug Conjugates Targeted at Human Aspartyl-(Asparaginyl)-B-Hydroxylase (HAAH)” (Panacea Pharmaceuticals, Inc., priority 2017, published 2020) are described below.

One assay deals with H460 lysate. Description: ELISA on plates coated with H460 lysate, percent of loading amount bound. A general note: ELISA stands for enzyme-linked immunosorbent assay.
In assay [1] the target is T1, HAAH catalytic domain (human, UniProt Q12797).
T1 sequence: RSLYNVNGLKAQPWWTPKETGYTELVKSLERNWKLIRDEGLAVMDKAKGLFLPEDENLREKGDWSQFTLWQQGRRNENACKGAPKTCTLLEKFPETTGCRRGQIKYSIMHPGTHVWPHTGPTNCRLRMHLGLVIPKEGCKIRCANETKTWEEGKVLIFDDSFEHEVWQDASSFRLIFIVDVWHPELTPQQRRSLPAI
Kind of assay: ELISA on plates coated with HAAH catalytic domain. The method, then:
The catalytic domain of HAAH (HAAH-cat) is exposed at the surface of HAAH-expressing cancer cells. The binding of SNS622-MC-DM1 at different drug-antibody ratio (DAR) and pH to HAAH-cat was measured using IgG1λ as control. The plates were coated with HAAH by treating with […] HAAH catalytic domain overnight. Following blocking with 1% Non-Fat Dry Milk in PBS for one hour, the plates were incubated for 45 minutes at 37° C. with 11.1 mg/ml IgG1λ; 9.6 mg/ml SNS622; 4.8 mg/ml SNS622-MC-DM1 at DAR 2.5, pH 7.0; 5.9 mg/ml SNS622-MC-DM1 at DAR 2.5, pH8.0; 6.1 mg/ml SNS622-DM1 at DAR 5.0, pH 7.0; 5.7 mg/ml SNS622-MC-DM1 at DAR 5.0, pH8.0; 4.1 mg/ml SNS622-DM1 at DAR 10.0, pH7.0; or 4.4 mg/ml SNS622-MC-DM1 at DAR 10.0, pH8.0. Following 5 PBS rinses the plates were incubated with 1:100 goat anti-human IgG (8)-HRP for 30 minutes at 37° C., Following five PBS rinses TMB substrate was added, and after a 15-minute incubation at room temperature, Stop solution was added to terminate the reactions. The plates were read at 450 nm using a 96-well plate reader (ELx808, BioTek). The binding results are shown below in Table VI

The target of assay [2] is T1, HAAH catalytic domain. Description: ELISA on plates coated with HAAH catalytic domain; [Protein] 11.1 mg/ml.
Assay [3] deals with Human aspartyl (asparaginyl) β-hydroxylase (HAAH) (human) (UniProt Q12797).
Assay [4] addresses T2, Human aspartyl (asparaginyl) β-hydroxylase (HAAH) (human, UniProt Q12797).
T2 sequence: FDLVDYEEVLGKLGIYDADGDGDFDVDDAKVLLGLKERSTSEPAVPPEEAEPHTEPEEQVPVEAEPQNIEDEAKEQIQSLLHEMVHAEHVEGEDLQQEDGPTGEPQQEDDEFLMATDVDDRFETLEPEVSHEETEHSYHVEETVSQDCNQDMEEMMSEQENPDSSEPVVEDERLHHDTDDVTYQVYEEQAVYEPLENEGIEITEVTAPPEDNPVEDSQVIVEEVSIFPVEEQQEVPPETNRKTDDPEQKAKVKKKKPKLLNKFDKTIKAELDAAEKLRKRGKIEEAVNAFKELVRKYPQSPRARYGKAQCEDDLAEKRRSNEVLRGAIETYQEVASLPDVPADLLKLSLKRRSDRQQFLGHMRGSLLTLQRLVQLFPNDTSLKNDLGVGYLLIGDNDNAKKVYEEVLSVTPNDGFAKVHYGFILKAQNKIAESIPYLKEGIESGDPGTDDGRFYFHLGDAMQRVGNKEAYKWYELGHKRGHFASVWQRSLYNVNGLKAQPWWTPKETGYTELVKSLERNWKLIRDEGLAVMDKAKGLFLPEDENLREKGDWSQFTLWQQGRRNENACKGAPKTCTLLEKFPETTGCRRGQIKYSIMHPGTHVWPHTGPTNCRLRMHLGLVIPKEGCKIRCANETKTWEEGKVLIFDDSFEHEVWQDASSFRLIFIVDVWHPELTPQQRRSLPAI
Kind of assay: immunoassay on fixed H460 cells; printed as 'binding affinities'.

In assay [5] the target is Human aspartyl (asparaginyl) β-hydroxylase (HAAH) (human) (UniProt Q12797). The source holds these as a separate data set.
The target is the same in assay [6]. This is another data set of the same source.
The target is the same in assay [7]. This is another data set of the same source.
Assay [8] addresses T2, Human aspartyl (asparaginyl) …. Kind of assay: cell-based or functional assay.
Assay [9] addresses Human aspartyl (asparaginyl) β-hydroxylase (HAAH) (human) (UniProt Q12797). The source holds these as a separate data set.

“IgG1λ (non-specific monoclonal antibody)”: the Percent binding with H460 lysate is less than 0.002%. The % Binding with HAAH catalytic domain [1] was 0.01%. In the assay with HAAH catalytic domain [2], the [Average]* is less than 0.001 mg/mL.

For “IgG1λ-MC-DM1 (non-specific ADC) (antibody)”, the Percent binding with H460 lysate is less than 0.002%.

B1: SNS622-MC-DM1 (antibody, V domains shown)
VH: QVQLQQSGPGLVKPSQTLSLTCAISGDSVSSNSAAWNWIRQSPSRGLEWLGRTYYRSKWYNDYAVSVKSRITINPDTSKNQFSLQLNSVTPEDTAVYYCARTGYSSSWVVNFDYWGQGTLVTVSS
VL: QPVLTQSPSASGTPGQRVTISCSGSSSNIGSNYVYWYQQLPGTAPKLLIYKNNQRPSGVPDRFSGSKSGTAASLAISGLQSEDEADYYCAAWDDSLRGYVFGTGTKLTVLG
modifications: MC-DM1 (maleimidocaproyl-mertansine) on cysteine thiols of reduced disulfide bonds, positions not given; MC-DM1 (maleimidocaproyl-mertansine) on cysteine thiols of reduced disulfide bonds, positions not given
In assay [3], B1 registered an IC50 of MTS, H460 cells, 72 h of 64 nM and an LC50 of LDH, H460 cells, 72 h of 36 nM. For the same molecule, in the assay with H460 lysate, the Percent binding was 107%. The Kd (in general, the equilibrium constant for the complex coming apart) in [4] was approximately 0.1 nM. Moreover, in [5], the MTS assay, MIA-PaCa-2 ASPH cells, 10, 20 or 50 nM, 48 h (% reduction of relative absorbance) was found to be 16. The molecule also registered an LDH release, H460 cells, 32 nM, 72 h (× (over untreated H460 cells)) in assay [6] of 39. In addition, in [7], the EC50, H460 cell viability, MTS assay, 24 h turned out to be 15 nM.

B2: SNS622 (antibody, V domains shown)
VH: B1 VH
VL: B1 VL
Molecule B2 had a Percent binding with H460 lysate of 92%. For the same molecule, the “% Binding” value in the assay with HAAH catalytic domain [1] stood at 97.6%.

B3: SNS622-MC-MMAE (antibody, V domains shown)
VH: B1 VH
VL: B1 VL
modifications: MC-MMAE on cysteine thiols of reduced disulfide bonds, positions not given; reaction DAR 10:1 gives final DAR 5.72 (also made at 2.5:1 and 5:1); MC-MMAE on cysteine thiols of reduced disulfide bonds, positions not given
Turning to B3, the “IC50 of MTS, H460 cells, 72 h” value in assay [8] is 48 nM.

B4: SNS622-DM1B2 (antibody, V domains shown)
VH: B1 VH
VL: B1 VL
modifications: MC-DM1 on cysteine thiols of reduced disulfide bonds, positions not given; reaction DAR 5:1, pH 8, final DAR 3.36; MC-DM1 on cysteine thiols of reduced disulfide bonds, positions not given
Regarding B4, in the assay with HAAH catalytic domain [1], the “% Binding” value amounted to 89.5%.

B5: SNS622-MC-PEG4-vc-PAB-DMEA-DUO (antibody, V domains shown)
VH: B1 VH
VL: B1 VL
modifications: MC-PEG4-vc-PAB-DMEA-duocarmycin on cysteine thiols of reduced disulfide bonds, positions not given; reaction DAR 2.2:1, final DAR 1.92:1; MC-PEG4-vc-PAB-DMEA-duocarmycin on cysteine thiols of reduced disulfide bonds, positions not given
The molecule B5 gave an IC50, MOLM-14 cell viability, MTS assay, 24 h in [9] of 60 nM. Moreover, the Kd in assay [4] is approximately 0.5 nM. Also, the EC50, H460 cell viability, MTS assay, 24 h in assay [7] came out at 300 nM.

B6: SNS622-DM1C2 (antibody, V domains shown)
VH: B1 VH
VL: B1 VL
modifications: MC-DM1 on cysteine thiols of reduced disulfide bonds, positions not given; reaction DAR 10:1, pH 8, final DAR 5.81; MC-DM1 on cysteine thiols of reduced disulfide bonds, positions not given
With B6, the “% Binding” value in the assay with HAAH catalytic domain [1] came to 80.5%.

B7: SNS622-DM1C1 (antibody, V domains shown)
VH: B1 VH
VL: B1 VL
modifications: MC-DM1 on cysteine thiols of reduced disulfide bonds, positions not given; reaction DAR 10:1, pH 7, final DAR 5.08; MC-DM1 on cysteine thiols of reduced disulfide bonds, positions not given
For the molecule B7, the “% Binding” value in the assay with HAAH catalytic domain [1] is 11.7%.

B8: SNS622-DM1B1 (antibody, V domains shown)
VH: B1 VH
VL: B1 VL
modifications: MC-DM1 on cysteine thiols of reduced disulfide bonds, positions not given; reaction DAR 5:1, pH 7, final DAR 3.22; MC-DM1 on cysteine thiols of reduced disulfide bonds, positions not given
As to B8, in the assay with HAAH catalytic domain [1], the “% Binding” value turned out to be 81.2%.

B9: SNS622-DM1A2 (antibody, V domains shown)
VH: B1 VH
VL: B1 VL
modifications: MC-DM1 on cysteine thiols of reduced disulfide bonds, positions not given; reaction DAR 2.5:1, pH 8, final DAR 2.10; MC-DM1 on cysteine thiols of reduced disulfide bonds, positions not given
For the molecule B9, in the assay with HAAH catalytic domain [1], the “% Binding” value was found to be 84.8%.

B10: SNS622-MC-vc-PAB-DM1 (antibody, V domains shown)
VH: B1 VH
VL: B1 VL
modifications: MC-vc-PAB-DM1 on cysteine thiols of reduced disulfide bonds, positions not given; reaction DAR 10:1 gives final DAR 6.56 (also made at 2.5:1 and 5:1); MC-vc-PAB-DM1 on cysteine thiols of reduced disulfide bonds, positions not given
As to B10, in assay [8], the “IC50 of MTS, H460 cells, 72 h” value was found to be 123 nM.

B11: SNS622-MC-vc-PAB-MMAE (antibody, V domains shown)
VH: B1 VH
VL: B1 VL
modifications: MC-vc-PAB-MMAE on cysteine thiols of reduced disulfide bonds, positions not given; reaction DAR 10:1, final DAR 6.31; MC-vc-PAB-MMAE on cysteine thiols of reduced disulfide bonds, positions not given
B11 came in with an IC50, MOLM-14 cell viability, MTS assay, 24 h in assay [9] of 50 nM. The same molecule returned a Kd in assay [4] of approximately 0.2 nM. In [7], this molecule showed an EC50, H460 cell viability, MTS assay, 24 h of 60 nM.

B12: SNS622-DM1A1 (antibody, V domains shown)
VH: B1 VH
VL: B1 VL
modifications: MC-DM1 on cysteine thiols of reduced disulfide bonds, positions not given; reaction DAR 2.5:1, pH 7, final DAR 2.00; MC-DM1 on cysteine thiols of reduced disulfide bonds, positions not given
As to B12, in the assay with HAAH catalytic domain [1], the “% Binding” value is 75.1%.
